Assay results published in the DeepSol protein solubility set.

Test: soluble on expression in E. coli; label from the status in PepcDB or PDB records
In the case of “MQINKDELIKMGNHLKEARLSKQLTQEELARLSNISQATIVKYENGLRSISKKNDRILSDVLGAESFIKDMIQRKQQVLIDLEKYQTKNIFSREDLSKKLGIEISLLNKFLNQSRPLSKNAIVKITQLLSNEGKEILMDIKQEDGSFKLPIIDKIAMGKRIQEIRKNRGETLEKFGKNFTRPAGKNVVNRWEKGTNIPDIERLMNVAYLGKVAVPYILYGETFSKMLKKGSRISKFEKLDSFRMGLRLRKIRRDYRLEREDFGKFFSPPITKWSMDKYENGKDIPNTDRIIQYAYIGKVSLNFLIYGVN”, the “soluble on expression in E. coli” value is reported as “not soluble”. For “MAHHHHHHMVGARFFFLNLPTSLSSASSLNRNKITSNRLPTDPSTPQWRDGYKLRKAVDDSSTQSTHRLPIYFCNAQRRVSSHSGRKTLLLATICIYDVGALDSFPIVLLVPLLNFIKSGLNEVDGSADCVDFSEYQCLTAPFPTTFRISLCPRLRFGGQFFFFCTHSRGDKNSRSILSHQRLAKFVPLFHTWYNEQDIS”, the “soluble on expression in E. coli” value was “not soluble”. In the case of “MSLMESWLIPAAPVTVVEEIKKSRFITMLAHTDGVEAAKAFVESVRAEHPDARHHCVAWVAGAPDDSQQLGFSDDGEPAGTAGKPMLAQLMGSGVGEITAVVVRYYGGILLGTGGLVKAYGGGVNQALRQLTTQRKTPLTEYTLQCEYHQLTGIEALLGQCDGKIINSDYQAFVLLRVALPAAKVAEFSAKLADFSRGSLQLLAIEEEGGSHHHHHH”, the “soluble on expression in E. coli” value is reported as “soluble”. For “MSLRKFWHVGINVTDMDKSIDFYRRIGFEVVQDREVEDSNLARAFMVEGASKLRFAHLRLNDSPDEAMLDLIEWRDARSEGRAQSDLVHPGLCRFSILTDDIDAEYARLADDGVQFLHAPQTIMGPDGVKGWRLLFARDPDGTLFHFAELVGQAATEGHHHHHH”, the “soluble on expression in E. coli” value was “not soluble”. With “TLPKPFIWAEPHFMVPKEKQVTICCQGNYGAVEYQLHFEGSLFAVDRPKPPERINKVKFYIPDMNSRMAGQYSCIYRVGELWSEPSNLLDLVVTEMYDTPTLSVHPGPEVISGEKVTFYCRLDTATSMFLLLKEGRSSHVQRGYGKVQAEFPLGPVTTAHRGTYRCFGSYNNHAWSFPSEPVKLLVTG” the “soluble on expression in E. coli” value was “soluble”. With “MHVALHTVRMYPRNTSMVAIPSRELSPRRDGFRELLETNYQKRDLVHLTAGSVVPLLKNSIWLVVRGMVKLGAVSVHGDELLLGLAGPNEPFGEPLSTVEAYEAVALSDCDLLCLSANEVEQAPQLALAMMDAIGARYRQAEYMLALLGLRRVEERVRGFLEMLAQDYGQPCDDGLRLNLRLTHQEMASALSTTRVTVTRVIGLLRDEGWLKIDAQRHLVIAHLPRR” the “soluble on expression in E. coli” value was “not soluble”. For “SEDDAPVIYGLEFQARALTPQTAETDAIRFLVGTQSLKYDNQIHIIDFDDENNIINKNVLLHQAGEIWHISASPADRGVLTTCYNRTSDSKVLTCAAVWRMPKELESGSHESPDDSSSTAQTLELLCHLDNTAHGNMACVVWEPMGDGKKIISLADNHILLWDLQESSSQAVLASSASLEGKGQLKFTSGRWSPHHNCTQVATANDTTLRGWDTRSMSQIYCIENAHGQLVRDLDFNPNKQYYLASCGDDCKVKFWDTRNVTEPVKTLEEHSHWVWNVRYNHSHDQLVLTGSSDSRVILSNMVSISSEPFGHLVDDDDISDQEDHRSEEKSKEPLQDNVIATYEEHEDSVYAVDWSSADPWLFASLSYDGRLVINRVPRALKYHILL”, the “soluble on expression in E. coli” value was “soluble”. For “MKDKYLIIDGYNMIGQSPELGKIAKDNLQEAREQLLDAIANYNAVVADEIVCVFDAYEQSGIEREYIYHGVKTVFTKEKETADSYIERYVYNLYNKHTTHITVVTSDMSEQHAIFGAGAYRVSSREMWRDLRENEITVSKSLDDFTESKPRTRISLSNDVLAEFEKIRRGNHNKDLEHHHHHH”, the “soluble on expression in E. coli” value was “not soluble”. With “MESYIQNLFAERIGGKSFGKEDVIYKFEKIKRAKQAAKLKYPDMELIDMGVGEPDEMADESVVEVLCEEAKKHVNRGYSDNGVQALKDEIPIYLEKIFGVKDLDPVNEVVHSIGSKPALAYITSVFINPGDVTLMTVPGYPVTATHTKWYGGSVETLPLLEKNNFLPELDAISKEVRENAKILYLNYPNNPTGAQATKKFYKEAVDFAFENDLIVIQDAAYAALTYGDKPLSFLSVKDAKEVGVEIHSFSKAYNMTGWRLAFVAGNELIVRGFAAVKDNYDSGQFIPIQKAGIHCLRHPEITEKTRAKYERRLSKMVKILKEAGFNAKMPGGTFYLYVKAPIGTKDGAKFANAEEFSQFMIKEKLISTVPWDDAGNFVRMAACFEAFKDGEISIEEEDRILNEVKRRLTEVEFVFE” the “soluble on expression in E. coli” value was “not soluble”. With “MDNHNKYSVRCQCGAVEVQLNNNPVVHAFCHCSDCRDLLNIPFHAVTAWNKNDAVIVKGEEELSIYKHPSLEMTRCFCKHCGETVFNTNVMDWRVISQLLISKCNNNEIPENLRSDKHFFYEQRVVDIQDELPKFSRGTDGPLYEDQH” the “soluble on expression in E. coli” value was “not soluble”. For “MAIPSRSPLASRALSFLGALSLLTFAATPVLAESTPTAAPPQFAVESPKAASSLLLSVAHAGKRLVAVGDRGHILLSDDDGKTWTQAKVPTRQLLTSVFFVNERKGWAVGHDAQILVSDDAGSTWARQFEDLGREAPLLDIWFADEQHGLAVGAYGALLETRDGGQHWEDVSERLDNEDQFHLNAIAAVKDNGLLVVGEAGSLFRSKDWGATWEKLEGPYEGSLFGAIGTADAGGVLVYGLRGHLFRSADFGDSWEEIPLKAASGDLEFGLSDGALLADGRIVVVGHGGSVLESTDGGRSFSVFNRPDRLSLAGVSATGDGHLILVGQGGVHLAAANGAALEQQQLEHHHHHH”, the “soluble on expression in E. coli” value was “soluble”. For “REVLARDREVLRSVYGILVQAHYRNTPDDLLAMLESPHHRIYALEADGTPVAVADVVLEGPDVEEEARIALERLLYMAGSPGSGVVSWRVSRIAVHEDLQRRGLGSRLLRHVEAQARESGASLVTTMFSRHDVIPFWLKNGFKPFYVSPRYNRVTGEKNVALAKPLDSAGA”, the “soluble on expression in E. coli” value was “not soluble”. With “MFQLSVQDIHPGEKAGDKEEAIRQVAAALVQAGNVAEGYVNGMLAREQQTSTFLGNGIAIPHGTTDTRDQVLKTGVQVFQFPEGVTWGDGQVAYVAIGIAASSDEHLGLLRQLTHVLSDDSVAEQLKSATTAEELRALLMGEKQSEQLKLDNEMLTLDIVASDLLTLQALNAARLKEAGAVDATFVTKAINEQPLNLGQGIWLSDSAEGNLRSAIAVSRAANAFDVDGETAAMLVSVAMNDDQPIAVLKRLADLLLDNKADRLLKADAATLLALLTSDDAPTDDVLSAEFVVRNEHGLHARPGTMLVNTIKQFNSDITVTNLDGTGKPANGRSLMKVVALGVKKGHRLRFTAQGADAEQALKAIGDAIAAGLGEGA” the “soluble on expression in E. coli” value was “soluble”. In the case of “MGTRSPHIVLRNATYLNSYIREWMQANIWIYDDRIIYVGEKLPEQLHECEVIDCDGKYVVPSYIEPHAHPYQLYNPETLANHAMQFGTTTFINDNLEHHHHHH”, the “soluble on expression in E. coli” value is reported as “soluble”. In the case of “GSKGDSKETRLTLMEEVLLLGLKDREGYTSFWNDCISSGLRGCMLIELALRGRLQLEACGMRRKSLLTRKVICKSDAPTGDVLLDEALKHVKETQPPETVQNWIELLSGETWNPLKLHYQLRNVRERLAKNLVEKGVLTTEKQNFLLFDMTTHPLTNNNIKQRLIKKVQEAVLDKWVNDPHRMDRRLLALIYLAHASDVLENAFAPLLDEQYDLATKRVRQLLDLDPEVECLKANTNEVLWAVVAAFTK”, the “soluble on expression in E. coli” value is reported as “soluble”. With “SYTLPSLPYAYDALEPHFDKQTMEIHHTKHHQTYVNNANAALESLPEFANLPVEELITKLDQLPADKKTVLRNNAGGHANHSLFWKGLKKGTTLQGDLKAAIERDFGSVDNFKAEFEKAAASRFGSGWAWLVLKGDKLAVVSTANHDSPLMGEAISGASGFPIMGLDVWEHAYYLKFQNRRPDYIKEFWNVVNWDEAAARFAAKK” the “soluble on expression in E. coli” value was “soluble”. For “MHCPFCRHPDSRVIDSRETDEGQAIRRRRSCPECGRRFTTVETAVLAVVKRSGVTEPFSREKVISGVRRACQGRQVDDDALNLLAQQVEDSVRAAGSPEIPSHDVGLAILGPLRELDEVAYLRFASVYRSFSSADDFAREIEALRAHRNLSAHS”, the “soluble on expression in E. coli” value was “soluble”. In the case of “RESLGRDVMVVVDLSGSMAEQDFVSKQSSDLGAVKKISRLEATKEVLADFVKTRKGDRLGLILFGDAAFVQTPFTADQSVWLELLNQTDVAMAGQSTHLGDAIGLAIKVFEQSSEDKASAEENAKPREKVAIVLTDGNDTGSYVEPIDAAKVAAAKDVRIHMIAMGDPRTVGEQALDMNIINRVAKESGGKAFQAINRDELEQAYDEIGELEPQLYE”, the “soluble on expression in E. coli” value is reported as “not soluble”. In the case of “MMRRILLKSIKFYRIYLSPLKRNACCKFIPTCSQYAIDAIEKYGALKGSFMAVKRILRCNPFSKGGYDPVKLEHHHHHH”, the “soluble on expression in E. coli” value is reported as “not soluble”. In the case of “MGSDKIHHHHHHMFNSERLCIARERRGLTQRALAEAAGLTSKTISNYEKAGIFDAIASDSMERISAVLEYPIEFFLDRDVPSLTPEAVSFRAMTKLSAQKRDSALGAGKLAQELSAWIDGQFKLPKPNVPDSSFDGYSEPERAARTVREAWGIGELSISNIVHLLEANGIRVFSLAENCVEVDAFSFWMDEKPFVLLNTMKTPERSRFDAAHELGHLVLHKHSCNNGRQAEQDADRFASAFLMPERSILASVPRMPRLEQLILLKKNWKVSLAALVRRTFDVGLSTEWHYRQLSIELNRRGYRTGEPQGMPEREKSLILEKVFSALRTQGIKRTEILGQLRFPADEVSALTFNNRFFMEAITGDGPQSYIERKQPPQLSLVK”, the “soluble on expression in E. coli” value is reported as “not soluble”. In the case of “MAVAANKRSVMTLFSGPTDIYSHQVRIVLAEKGVSFEIEHVEKDNPPQDLIDLNPNQSVPTLVDRELTLWESRIIMEYLDERFPHPPLMPVYPVARGESRLYMHRIEKDWYTLMNTIINGSASEADAARKQLREELLAIAPVFGQKPYFLSDEFSLVDCYLAPLLWRLPQLGIEFSGPGAKELKGYMTRVFERDSFLASLTEAEREMRLGRS”, the “soluble on expression in E. coli” value is reported as “soluble”. For “MAHHHHHHMMSMRPTTGMAPPPTGMAFSATGSSHTGPMRPTTTMGGGTTLGRIQAQVQEGTFTSTVYGYIRDHQYEEAVELLATQLEEFPRSRAAASLMAYCYYMMGDYGEAASLYEQLTKICPNIEEYRVYYAQSLYKAGAYAESNRLCTLITSPQNQTTLNKLQAAIAYEQEDIPQTKSFLDQAPETDTDMLVLRACVLSKEGSYEEALEKFKEAQNAVGFSAALTYNMALMYYKMEQYGPALRHLAEIIDRGVEEHPELNIGTNTEGGEARSVGNTQLLRETALIEAFNLKAAIEYASKNMQAAKEALTDMPPRTDAELDPVTLHNTALINMDENPTNAFKKFNFLLQNPPFPPETFQNLLLFYCKYQYYDLAADVLAENPHLAWQYLSQNNQSLYDFLDGLITAQTSPAEAYRKFDILAQKMVQQLRNMTRRIQEADQSQDAAVAKTAVRTYDVTLEEYIPVLMAQANIYWEMENYPMVEQLFRQSADFCSENDVWKQNVAHVFFMQETKFKEAIRYYSPVVEANRENILNCSAIVLANLCVSYIMTAQNEQAEEIMRRIERAEERLTYEDSSKQPLHLCIVNLVIGTLYCSKGNFEFGISRIIKSLEPYDRKIMTDTWFYAKRCFLALAMNLAKHMVSLKDSSFEEILFFFDQADLHGEKIFAFIHPDPSKQDTSPRNTARWEARQLKKLYLTLKE”, the “soluble on expression in E. coli” value was “not soluble”. For “MASGKATSLYSHAEIFLPSKQESGIKKKSGEETQQTKGATIESSRINQNRAERTQRFQTQCSKRKPYEIRQGIPERSSSKQDPGNKTASIEHRGRENPSETHES”, the “soluble on expression in E. coli” value was “not soluble”. For “MSLKINVADFHGTYLENPRTVNNFSLTGTDQKVFDNSSLQGRWTLVFFGFTNCGYLCPTTMAELGKMYRILEKKGVKNLPQVVMISIDPQRDSLDKLGSYVTSFHKSFYGARGEEDSIKSMTHEMGIAYAKINSKESSEPENYDIQHSGAVMLFNPQGELNAFFTTPHHADLLAKDYVLLVSEGHHHHHH”, the “soluble on expression in E. coli” value was “soluble”.
